Laboratory results reported in paper PMC5035592.

Experiments:
[1] = target: equine collagen (Horm), a mixture of 95 % collagen type I and 5 % type III (equine); assay: VWF collagen binding assay
[2] = target: platelet glycoprotein Ib alpha (UniProt P07359); assay: VWF:GPIb binding assay

ratio of VWF:CB to VWF:Ag in medium (in relation to rwtVWF) [1]	VWF:GPIbα binding (in relation to rwtVWF) [2]	ratio of VWF:GPIbα binding to VWF:Ag in medium (in relation to rwtVWF) [2]	ratio of VWF:GPIbα binding to VWF:Ag [2]	Substance
1	1	1	–	recombinant wild type von Willebrand factor (from UniProt P04275-1 764-2813) (natural protein)
–	–	–	1.06	plasma von Willebrand factor of a normal person (from UniProt P04275-1 764-2813) (natural protein)
